Data on 2 molecules can be found in US20250197496A1 (EVOLVELMMUNE THERAPEUTICS, published 2025).

Numbering of substitutions follows the chain as printed.

For test [1], the target named is T1, human ULBP2 (26-216) F43A on yeast (human, UniProt Q9BZM5 26-216).
T1 construct: fused to V5 tag and Aga2
T1 chain: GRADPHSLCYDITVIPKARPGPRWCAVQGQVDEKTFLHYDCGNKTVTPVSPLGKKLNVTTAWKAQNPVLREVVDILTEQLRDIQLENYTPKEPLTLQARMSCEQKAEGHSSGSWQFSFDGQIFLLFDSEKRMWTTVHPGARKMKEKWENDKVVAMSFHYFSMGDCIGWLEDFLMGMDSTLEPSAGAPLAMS
Briefly: yeast display FACS, 1 nM.

In test [2] the target is T2, human ULBP2 (26-216) P45A on yeast (human, UniProt Q9BZM5 26-216).
T2 construct: fused to V5 tag and Aga2
T2 chain: T1 chain with A18F, P20A
Briefly: yeast display FACS, 1 nM.

Test [3] deals with T3, human ULBP2 (26-216) C66A on yeast (human, UniProt Q9BZM5 26-216).
T3 construct: fused to V5 tag and Aga2
T3 chain: T1 chain with A18F, C41A
Briefly: yeast display FACS, 1 nM.

The target in test [4] is T4, human ULBP2 (26-216) V93A on yeast (human, UniProt Q9BZM5 26-216).
T4 construct: fused to V5 tag and Aga2
T4 chain: T1 chain with A18F, V68A
Briefly: yeast display FACS, 1 nM.

The target in test [5] is T5, Human ULBP2 (recombinant) (human, UniProt Q9BZM5 26-217).
T5 construct: bought (R&D Systems) as ULBP2-Fc or ULBP2-His; also called recombinant ULBP2
T5 sequence: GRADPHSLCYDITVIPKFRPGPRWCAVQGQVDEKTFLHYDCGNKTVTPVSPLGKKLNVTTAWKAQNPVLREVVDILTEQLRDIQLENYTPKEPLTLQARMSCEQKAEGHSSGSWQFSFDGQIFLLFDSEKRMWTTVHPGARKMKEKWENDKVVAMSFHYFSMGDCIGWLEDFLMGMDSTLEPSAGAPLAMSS
Briefly: BLI, antibody on AHC sensor.
Method: (§1) Bio-layer interferometry (BLI) was performed on the Octet RED384 (Sartorius). […] Subsequently, dissociation was measured over 600 seconds. The kinetic and affinity constants are determined by fitting the data to a 1:1 binding model using the Octet analysis software.

The next test addresses T6, Human ULBP5-His (human, UniProt Q6H3X3 26-223, limits assumed).
T6 construct: bought (R&D Systems), His tag; also called RAET1G
T6 sequence: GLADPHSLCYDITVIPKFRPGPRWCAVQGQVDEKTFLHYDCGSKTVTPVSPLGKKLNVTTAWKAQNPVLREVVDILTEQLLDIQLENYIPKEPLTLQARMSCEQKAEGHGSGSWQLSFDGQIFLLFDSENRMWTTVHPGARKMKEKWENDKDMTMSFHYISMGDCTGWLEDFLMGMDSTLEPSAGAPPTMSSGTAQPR
Briefly: BLI, antibody on AHC sensor.

The target in the next test is T7, Human ULBP6-His (human, UniProt Q5VY80 26-218, limits assumed).
T7 construct: bought (R&D Systems), His tag; also called RAET1L
T7 sequence: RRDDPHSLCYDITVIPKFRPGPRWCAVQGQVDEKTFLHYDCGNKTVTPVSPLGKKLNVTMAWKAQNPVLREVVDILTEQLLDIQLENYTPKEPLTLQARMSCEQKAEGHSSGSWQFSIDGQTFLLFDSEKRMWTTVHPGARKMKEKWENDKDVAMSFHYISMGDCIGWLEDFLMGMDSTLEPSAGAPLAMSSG
The test is described as follows: BLI, antibody on AHC sensor.

Test [6] has as its target T5, Human ULBP2 (recombinant). The test is described as follows: SPR, biotinylated antigen on SA chip.
Method: Surface plasmon resonance (SPR) was performed on the Biacore 8K+ (Cytiva). Biotin labelled proteins were captured using the Sensor chip SA (Cytiva). […] The association contact and dissociation time are 60-120 seconds and 120-420 seconds respectively. The chip surface is regenerated by injecting 10 mM glycine, pH 1.5, at a flow rate of 30 μL/min for 60 seconds. The kinetic and affinity constants are determined by fitting the data to a 1:1 binding model using the Biacore insight evaluation software.
Test [7] deals with T8, human ULBP2 (26-216) displayed on yeast (human, UniProt Q9BZM5 26-216).
T8 construct: also called Wild type; wild-type ULBP2
T8 sequence: T1 chain with A18F
The test is described as follows: flow cytometry on yeast displaying ULBP2; unstained control 385.

The target in test [8] is T9, human ULBP2 (26-216) R106L displayed on yeast (human, UniProt Q9BZM5 26-216).
T9 construct: also called Human ULBP2 R106L; ULBP2 R106L
T9 chain: T1 chain with A18F, R81L
Described as above.

Test [9] addresses T9, human ULBP2 (26-216) R106L displayed on …. The test is described as follows: flow cytometry on yeast displaying ULBP2.
A further test addresses T10, Human ULBP2-His (human, UniProt Q9BZM5 26-217).
T10 construct: bought (R&D Systems), His tag
T10 sequence: T5 sequence
Briefly: competition ELISA, 10 nM biotin NKG2D-Fc on plate-bound ULBP2-His.

Method for Human ULBP5-His: as §1
Method for Human ULBP6-His: as §1

B1: E12 (antibody, V domains shown)
VH: QVQLVQSGAEVKKPGASVKVSCKASGYTFTNYDINWVRQAPGQGLEWMGWIYPGDGSTYYNEKFKGRVTMTRDTSTSTVYMELSSLRSEDTAVYYCARSGDYGLYYFDYWGQGTLVTVSS
VL: EIVLTQSPATLSLSPGERATLSCRASQSIGTSIHWYQQKPGQAPRLLIYFASESISGIPARFSGSGSGTDFTLTISSLEPEDFAVYYCQQSNSWPLYTFGGGTKVEIK
notes: humanized; also called humanized ULBP2 antibody E12; anti-ULBP2/5/6 antibody
In the case of B1, the “Gate 1 Freq. of Total” value was found to be 0.23% in test [1], 2.24% in [2], 0.23% in [3] and 67.2% in test [4]. The “Gate 2 Freq. of Total” value in test [1] stood at 2.48%; in [2], 44%; in test [3] it was 0.73%; in test [4] it was 0.055%. For the same molecule, the “Gate 3 Freq. of Total” value came to 19.9% in [1], 22.2% in test [2], 1.99% in test [3] and 0.005% in test [4]. Moreover, the dissociation constant Kd worked out at 0.198 nM in test [5], 0.345 nM with Human ULBP5-His, 0.456 nM with Human ULBP6-His and 0.22 nM in test [6]. The koff in test [6] amounted to 0.000211 s⁻¹. In test [6], the on-rate constant (kon) turned out to be 957000 M⁻¹ s⁻¹. In addition, the MFI in test [7] came to 5180; in test [8], 9160.

B2: A06 (antibody, V domains shown)
VH: EVQLVQSGAEVKKPGESLKISCKGSGYAFSTSWMNWVRQMPGKGLEWMGRIYPGDGDTNYNGNFKGQVTISADKSISTAYLQWSSLKASDTAMYYCARGGELRLEAMDSWGQGTLVTVSS
VL: EIVMTQSPATLSLSPGERITLSCSASSSIHSNYLHWYQQKPGQAPRLLIYRTSNLASGIPARFSGSGSGTDFTLTISSLQPEDFAVYYCQQGFSIPFTFGQGTKLEIK
notes: humanized; also called humanized ULBP2 antibody A06; anti-ULBP2 antibody
On to B2, for which the values for the Kd in test [5] and in test [6] were 0.532 nM and 0.162 nM, respectively. Further, the binding result is “no binding (tested: 250 nM (highest concentration tested))” with Human ULBP5-His, “no binding (tested: 250 nM (highest concentration tested))” in the test with Human ULBP6-His and “no binding” in test [9]. In addition, in [6], the off-rate (koff) amounted to 0.000214 s⁻¹. In addition, the on-rate constant (kon) in [6] stood at 1.32e+06 M⁻¹ s⁻¹. For the same molecule, the figures for the MFI in test [7] and in [8] were 8030 and 828, respectively. The molecule further displayed a half-maximal inhibitory concentration (IC50) with Human ULBP2-His of 2.26 nM.
